Measured values taken from PMC9859039, “The conserved centrosomin motif, γTuNA, forms a dimer that directly activates microtubule nucleation by the γ-tubulin ring complex (γTuRC)” (eLife, 2022).

B1: Strep-His-TEV-HaloTag-3C-human γTuNA (human CDK5RAP2 aa 53–98), wildtype [human] / itself (parent)
chain: SPTRARNMKDFENQITELKKENFNLKLRIYFLEERMQQEFHGPTEH
B2: Strep-His-TEV-HaloTag-3C-Xenopus γTuNA (Xenopus Cdk5rap2 aa 56–101), wildtype [Xenopus laevis] / itself (parent)
chain: MKDFEKQIAELKKENFNLKLRIYFLEEQVQQKCDNSSEDLYRMNIE

Variants of: B1
Experiment: size-exclusion chromatography (self-association / dimerization)
Details: with itself; 50 µM (monomer); Superdex 200 increase 10/300 GL; read off a plot

| Variant | screen value [mL] |
| --- | --- |
| chain 1 I15D L18D | 15.1 |
| chain 1 I15A L18A | 15.1 |

Same assay, conditions: with itself; 50 µM (monomer); Superdex 200 increase 10/300 GL; main peak, a minor peak near 12.9 mL is also drawn; read off a plot

| Variant | screen value [mL] |
| --- | --- |
| chain 1 F11D I15D L18D | 15.1 |

Same assay, conditions: with itself; 50 µM (monomer); Superdex 200 increase 10/300 GL; main peak, a minor peak near 13.1 mL is also drawn; read off a plot

| Variant | screen value [mL] |
| --- | --- |
| chain 1 F11A I15A L18A L25A | 15 |

Variants of: B2
Experiment: as above
Details: with itself; 50 µM (monomer); Superdex 200 increase 10/300 GL; read off a plot

| Variant | screen value [mL] |
| --- | --- |
| chain 1 L11A | 14 |
| chain 1 L18A | 14.2 |
| chain 1 F4A | 13.4 |
| chain 1 F16A | 13.3 |
| chain 1 I8A | 13.5 |
| chain 1 I8D L11D | 15 |

Same assay, conditions: with itself; 50 µM (monomer); Superdex 200 increase 10/300 GL; main peak, a minor shoulder near 13.2 mL is also drawn; read off a plot

| Variant | screen value [mL] |
| --- | --- |
| chain 1 L18A | 14.2 |
